Laboratory results: publication PMC10897159, “Structural insights into the activation mechanism of antimicrobial GBP1” (The EMBO Journal, 2024)
Values belong to the molecule of their own block, whether it stands above or below them.

What was measured:
[1] = target: GBP1 Δ207-223, non-farnesylated (human) (UniProt P32455); assay: cross-linking; BS3 at 20-times molar excess, 20 µM protein, with 200 µM GDP, 300 µM AlCl3, 10 mM NaF (GDP•AlFx); 50 mM HEPES, 150 mM NaCl, 5 mM MgCl2; SDS-PAGE
[2] = target: GBP1 M139E, non-farnesylated (human) (UniProt P32455); assay: SEC; analytical SEC (Superdex 200 5/150), 20 µM protein with 200 µM GDP, 300 µM AlCl3, 10 mM NaF (GDP•AlFx); 50 mM Tris-HCl pH 7.9, 150 mM NaCl, 5 mM MgCl2
[3] = target: GBP1 M139R, non-farnesylated (human) (UniProt P32455); assay: as above
[4] = target: the molecule itself; assay: as above
[5] = target: the molecule itself; assay: cross-linking; BS3 at 20-times molar excess, 20 µM protein, with 200 µM GDP, 300 µM AlCl3, 10 mM NaF (GDP•AlFx); 50 mM HEPES, 150 mM NaCl, 5 mM MgCl2; SDS-PAGE
[6] = target: the molecule itself; assay: specific GTPase activity against protein concentration (HPLC), quadratic fit; apparent Kd of dimer formation; non-farnesylated GBP1, 1 mM GTP, 37 °C, 50 mM Tris-HCl pH 7.9, 150 mM NaCl, 5 mM MgCl2; dimer to monomers
[7] = target: T1, human guanylate-binding protein 1 (GBP1), wild-type, farnesylated (human), P32455; assay: cryo-EM structure; single particle analysis of polymeric disks; 5 µM farnesylated GBP1 with GDP•AlFx for 20-30 min, no membranes; ~37 Å; details: remark: other sources report otherwise
T1 chain: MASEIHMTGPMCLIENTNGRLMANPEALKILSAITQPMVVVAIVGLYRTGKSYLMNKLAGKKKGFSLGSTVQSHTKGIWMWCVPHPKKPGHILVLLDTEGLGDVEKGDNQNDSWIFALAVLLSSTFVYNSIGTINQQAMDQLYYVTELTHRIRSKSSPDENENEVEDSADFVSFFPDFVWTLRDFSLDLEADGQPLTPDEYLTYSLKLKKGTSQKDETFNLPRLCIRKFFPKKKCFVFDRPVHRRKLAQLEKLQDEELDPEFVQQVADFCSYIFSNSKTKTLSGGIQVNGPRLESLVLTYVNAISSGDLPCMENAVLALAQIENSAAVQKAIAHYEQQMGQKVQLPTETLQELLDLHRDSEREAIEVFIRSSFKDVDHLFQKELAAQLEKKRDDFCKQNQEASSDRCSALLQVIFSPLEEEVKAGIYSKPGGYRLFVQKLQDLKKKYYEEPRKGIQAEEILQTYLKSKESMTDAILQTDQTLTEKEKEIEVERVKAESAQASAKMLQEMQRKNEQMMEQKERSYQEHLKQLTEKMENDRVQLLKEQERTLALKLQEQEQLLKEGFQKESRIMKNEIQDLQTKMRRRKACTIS

[8] = target: the molecule itself; assay: light scattering-based polymerization assay; 10 µM farnesylated GBP1, polymerization started with 1 mM GTP (for the pivot point mutants also with LPS added); 50 mM Tris-HCl pH 7.9, 150 mM NaCl, 5 mM MgCl2; absorbance at 350 nm over 40 min; dimers to polymers

stoichiometry N [1]: 2
Molecule: GBP1 Δ207-223, non-farnesylated (from UniProt P32455 1-592) (natural protein)

stoichiometry N [2]: 2
Molecule: GBP1 M139E, non-farnesylated (from UniProt P32455 1-592) (natural protein)

stoichiometry N [3]: 2
Molecule: GBP1 M139R, non-farnesylated (from UniProt P32455 1-592) (natural protein)

B1: isolated LG domain of GBP1 Δ207-216 (domain or fragment, human, UniProt P32455 1-317, looked up)
chain: MASEIHMTGPMCLIENTNGRLMANPEALKILSAITQPMVVVAIVGLYRTGKSYLMNKLAGKKKGFSLGSTVQSHTKGIWMWCVPHPKKPGHILVLLDTEGLGDVEKGDNQNDSWIFALAVLLSSTFVYNSIGTINQQAMDQLYYVTELTHRIRSKSSPDENENEVEDSADFVSFFPDFVWTLRDFSLDLEADGQPLTPDEYLTYSLGGGSETFNLPRLCIRKFFPKKKCFVFDRPVHRRKLAQLEKLQDEELDPEFVQQVADFCSYIFSNSKTKTLSGGIQVNGPRLESLVLTYVNAISSGDLPCMENAVL
notes: LG domain of GBP1, human; stop codon in place of A318; also called α4’ variant LG domain construct; source: E. coli, pQE-80L, purified (Ni Sepharose HP, Superdex 200)
stoichiometry N [4]: 2

B2: GBP1 Δ207-216, non-farnesylated (natural protein, human, UniProt P32455 1-592, looked up)
chain: MASEIHMTGPMCLIENTNGRLMANPEALKILSAITQPMVVVAIVGLYRTGKSYLMNKLAGKKKGFSLGSTVQSHTKGIWMWCVPHPKKPGHILVLLDTEGLGDVEKGDNQNDSWIFALAVLLSSTFVYNSIGTINQQAMDQLYYVTELTHRIRSKSSPDENENEVEDSADFVSFFPDFVWTLRDFSLDLEADGQPLTPDEYLTYSLGGGSETFNLPRLCIRKFFPKKKCFVFDRPVHRRKLAQLEKLQDEELDPEFVQQVADFCSYIFSNSKTKTLSGGIQVNGPRLESLVLTYVNAISSGDLPCMENAVLALAQIENSAAVQKAIAHYEQQMGQKVQLPTETLQELLDLHRDSEREAIEVFIRSSFKDVDHLFQKELAAQLEKKRDDFCKQNQEASSDRCSALLQVIFSPLEEEVKAGIYSKPGGYRLFVQKLQDLKKKYYEEPRKGIQAEEILQTYLKSKESMTDAILQTDQTLTEKEKEIEVERVKAESAQASAKMLQEMQRKNEQMMEQKERSYQEHLKQLTEKMENDRVQLLKEQERTLALKLQEQEQLLKEGFQKESRIMKNEIQDLQTKMRRRKACTIS
notes: GBP1, human, full-length construct; also called helix α4’ variant; source: E. coli, pQE-80L, purified (Ni Sepharose HP, Superdex 200)
stoichiometry N [5]: 2 | fold lower dimerization affinity than wild-type GBP1 [6]: 1.8 fold

subunits (dimeric building blocks) in a planar polymeric disk [7]: 30 subunits
B3: human guanylate-binding protein 1 (GBP1), wild-type, farnesylated, P32455 1-592 (natural protein)
chain: MASEIHMTGPMCLIENTNGRLMANPEALKILSAITQPMVVVAIVGLYRTGKSYLMNKLAGKKKGFSLGSTVQSHTKGIWMWCVPHPKKPGHILVLLDTEGLGDVEKGDNQNDSWIFALAVLLSSTFVYNSIGTINQQAMDQLYYVTELTHRIRSKSSPDENENEVEDSADFVSFFPDFVWTLRDFSLDLEADGQPLTPDEYLTYSLKLKKGTSQKDETFNLPRLCIRKFFPKKKCFVFDRPVHRRKLAQLEKLQDEELDPEFVQQVADFCSYIFSNSKTKTLSGGIQVNGPRLESLVLTYVNAISSGDLPCMENAVLALAQIENSAAVQKAIAHYEQQMGQKVQLPTETLQELLDLHRDSEREAIEVFIRSSFKDVDHLFQKELAAQLEKKRDDFCKQNQEASSDRCSALLQVIFSPLEEEVKAGIYSKPGGYRLFVQKLQDLKKKYYEEPRKGIQAEEILQTYLKSKESMTDAILQTDQTLTEKEKEIEVERVKAESAQASAKMLQEMQRKNEQMMEQKERSYQEHLKQLTEKMENDRVQLLKEQERTLALKLQEQEQLLKEGFQKESRIMKNEIQDLQTKMRRRKACTIS
modifications: here or on the partner: farnesyl moiety at the C-terminal CaaX box motif; farnesyl moiety at the C-terminal CaaX box motif

B4: GBP1 D199K, farnesylated (natural protein, human, UniProt P32455 1-592, looked up)
chain: MASEIHMTGPMCLIENTNGRLMANPEALKILSAITQPMVVVAIVGLYRTGKSYLMNKLAGKKKGFSLGSTVQSHTKGIWMWCVPHPKKPGHILVLLDTEGLGDVEKGDNQNDSWIFALAVLLSSTFVYNSIGTINQQAMDQLYYVTELTHRIRSKSSPDENENEVEDSADFVSFFPDFVWTLRDFSLDLEADGQPLTPKEYLTYSLKLKKGTSQKDETFNLPRLCIRKFFPKKKCFVFDRPVHRRKLAQLEKLQDEELDPEFVQQVADFCSYIFSNSKTKTLSGGIQVNGPRLESLVLTYVNAISSGDLPCMENAVLALAQIENSAAVQKAIAHYEQQMGQKVQLPTETLQELLDLHRDSEREAIEVFIRSSFKDVDHLFQKELAAQLEKKRDDFCKQNQEASSDRCSALLQVIFSPLEEEVKAGIYSKPGGYRLFVQKLQDLKKKYYEEPRKGIQAEEILQTYLKSKESMTDAILQTDQTLTEKEKEIEVERVKAESAQASAKMLQEMQRKNEQMMEQKERSYQEHLKQLTEKMENDRVQLLKEQERTLALKLQEQEQLLKEGFQKESRIMKNEIQDLQTKMRRRKACTIS
modifications: farnesyl moiety at the C-terminal CaaX box motif
notes: GBP1, human, full-length construct with D199K in helix α4; also called pivot point mutant
binding result [8]: binds

B5: GBP1 D199A, farnesylated (natural protein, human, UniProt P32455 1-592, looked up)
chain: MASEIHMTGPMCLIENTNGRLMANPEALKILSAITQPMVVVAIVGLYRTGKSYLMNKLAGKKKGFSLGSTVQSHTKGIWMWCVPHPKKPGHILVLLDTEGLGDVEKGDNQNDSWIFALAVLLSSTFVYNSIGTINQQAMDQLYYVTELTHRIRSKSSPDENENEVEDSADFVSFFPDFVWTLRDFSLDLEADGQPLTPAEYLTYSLKLKKGTSQKDETFNLPRLCIRKFFPKKKCFVFDRPVHRRKLAQLEKLQDEELDPEFVQQVADFCSYIFSNSKTKTLSGGIQVNGPRLESLVLTYVNAISSGDLPCMENAVLALAQIENSAAVQKAIAHYEQQMGQKVQLPTETLQELLDLHRDSEREAIEVFIRSSFKDVDHLFQKELAAQLEKKRDDFCKQNQEASSDRCSALLQVIFSPLEEEVKAGIYSKPGGYRLFVQKLQDLKKKYYEEPRKGIQAEEILQTYLKSKESMTDAILQTDQTLTEKEKEIEVERVKAESAQASAKMLQEMQRKNEQMMEQKERSYQEHLKQLTEKMENDRVQLLKEQERTLALKLQEQEQLLKEGFQKESRIMKNEIQDLQTKMRRRKACTIS
modifications: farnesyl moiety at the C-terminal CaaX box motif
notes: GBP1, human, full-length construct with D199A in helix α4; also called pivot point mutant
binding result [8]: binds

B6: isolated LG domain of GBP1 Δ207-223 (domain or fragment, human, UniProt P32455 1-317, looked up)
chain: MASEIHMTGPMCLIENTNGRLMANPEALKILSAITQPMVVVAIVGLYRTGKSYLMNKLAGKKKGFSLGSTVQSHTKGIWMWCVPHPKKPGHILVLLDTEGLGDVEKGDNQNDSWIFALAVLLSSTFVYNSIGTINQQAMDQLYYVTELTHRIRSKSSPDENENEVEDSADFVSFFPDFVWTLRDFSLDLEADGQPLTPDEYLTYSLGGGSLCIRKFFPKKKCFVFDRPVHRRKLAQLEKLQDEELDPEFVQQVADFCSYIFSNSKTKTLSGGIQVNGPRLESLVLTYVNAISSGDLPCMENAVL
notes: as for B1
stoichiometry N [4]: 2

B7: GBP1 Δ207-213, non-farnesylated (natural protein, human, UniProt P32455 1-592, looked up)
chain: MASEIHMTGPMCLIENTNGRLMANPEALKILSAITQPMVVVAIVGLYRTGKSYLMNKLAGKKKGFSLGSTVQSHTKGIWMWCVPHPKKPGHILVLLDTEGLGDVEKGDNQNDSWIFALAVLLSSTFVYNSIGTINQQAMDQLYYVTELTHRIRSKSSPDENENEVEDSADFVSFFPDFVWTLRDFSLDLEADGQPLTPDEYLTYSLGGGSGGGSQKDETFNLPRLCIRKFFPKKKCFVFDRPVHRRKLAQLEKLQDEELDPEFVQQVADFCSYIFSNSKTKTLSGGIQVNGPRLESLVLTYVNAISSGDLPCMENAVLALAQIENSAAVQKAIAHYEQQMGQKVQLPTETLQELLDLHRDSEREAIEVFIRSSFKDVDHLFQKELAAQLEKKRDDFCKQNQEASSDRCSALLQVIFSPLEEEVKAGIYSKPGGYRLFVQKLQDLKKKYYEEPRKGIQAEEILQTYLKSKESMTDAILQTDQTLTEKEKEIEVERVKAESAQASAKMLQEMQRKNEQMMEQKERSYQEHLKQLTEKMENDRVQLLKEQERTLALKLQEQEQLLKEGFQKESRIMKNEIQDLQTKMRRRKACTIS
notes: as for B2
stoichiometry N [5]: 2 | fold lower dimerization affinity than wild-type GBP1 [6]: 3 fold
